In paper doi:10.1101/2024.12.12.628104 (bioRxiv, 2024):

Molecular target: the molecule itself
Test: […]; 50 uM, […], pH 6.9; […]

B1: Francisella tularensis dihydrolipoyl dehydrogenase (IPD) (enzyme)
chain: MSDIKTQVVVLGSGPGGYSAAFRAADLGLEVVLVERYAEIGGVCLNVGCIPSKAMLHIAKVINEARHLESLGIIEMGGLKINRENLLKYKDGVIGKLTGGLKGMAQMRKVKIVQGYGKFTSDKELAVEAADGKVTKIAFDNCIIAAGSSVIKLPFVPEDDRIIDSTGALEMKEIPETMLVVGGGIIGLEMAQVYSELGTKITVVEFADQLMNGVDKDLVKAYQKVNSRYDVRLKTAVTAMEAKEDGIYVTMEGDHPAKDERFDRVLMAIGRKPNGKLIDAEKAGVKVDERGFIPVDKQLRTNVPHIFAIGDIVGQPMLAHKAVPEGRTAAEVISGLNHSFDPLVIPSVAYTDPEVAWVGETETSAKAKGIKYEKGVFPWAASGRSLSIDRSEGMTKILFDENHKIIGASIVGTHAGELISEAAIAIEMGCDAEDIALTVHPHPTLSESLMMATEVYEGTATDLPPQKKKK
notes: also called dihydroprolyl dehydrogenase; Francisella IPD
stoichiometry N: 2
